Results on 5 sequences are retold here after the supplement of paper PMC11246515.

± gives the standard deviation of the averaged measurements.

The series can be described thus: total protein half-life in vivo (active degradation + dilution); higher = more stable protein.
Where [1] appears, read: E. coli NCM3722 delta-clpP delta-lon delta-hslV, growth: N-lim chemostat, doubling time 6 h.
The mark [2] stands for this setting: E. coli NCM3722 delta-clpP, growth: N-lim chemostat, doubling time 6 h.
The mark [3] stands for this setting: E. coli NCM3722 delta-lon, growth: N-lim chemostat, doubling time 6 h.
Setting [4] is: E. coli NCM3722 delta-smpB, growth: N-lim chemostat, doubling time 6 h.
Setting [5] is: E. coli NCM3722 delta-hslV, growth: N-lim chemostat, doubling time 6 h.
Where [6] appears, read: wild type E. coli NCM3722, growth: C-lim chemostat, doubling time 3 h.
[7] abbreviates: wild type E. coli NCM3722, growth: C-lim chemostat, doubling time 6 h.
Where [8] appears, read: wild type E. coli NCM3722, growth: C-lim chemostat, doubling time 12 h.
Setting [9] is: wild type E. coli NCM3722, growth: N-lim chemostat, doubling time 6 h.
Where [10] appears, read: wild type E. coli NCM3722, growth: N-lim chemostat, doubling time 12 h.
The mark [11] stands for this setting: wild type E. coli NCM3722, growth: P-lim chemostat, doubling time 6 h.
[12] abbreviates: wild type E. coli NCM3722, growth: P-lim chemostat, doubling time 12 h.

Regarding “MYFLNDLNFSRRDAGFKARKDALDIASDYENISVVNIPLWGGVVQRIISSVKLSTFLCGLENKDVLIFNFPMAKPFWHILSFFHRLLKFRIVPLIHDIDELRGGGGSDSVRLATCDMVISHNPQMTKYLSKYMSQDKIKDIKIFDYLVSSDVEHRDVTDKQRGVIYAGNLSRHKCSFIYTEGCDFTLFGVNYENKDNPKYLGSFDAQSPEKINLPGMQFGLIWDGDSVETCSGAFGDYLKFNNPHKTSLYLSMELPVFIWDKAALADFIVDNRIGYAVGSIKEMQEIVDSMTIETYKQISENTKIISQKIRTGSYFRDVLEEVIDDLKTR”, the “total protein half-life in vivo” value runs as follows: under setting [1], 6.47 h; under setting [2], 7.29 h; under setting [3], 5.02 ± 0.14 h; under setting [4], 4.15 ± 0.31 h.

On to “MQYHRIPHSSLEVSTLGLGTMTFGEQNSEADAHAQLDYAVAQGINLIDVAEMYPVPPRPETQGLTETYVGNWLAKHGSREKLIIASKVSGPSRNNDKGIRPDQALDRKNIREALHDSLKRLQTDYLDLYQVHWPQRPTNCFGKLGYSWTDSAPAVSLLDTLDALAEYQRAGKIRYIGVSNETAFGVMRYLHLADKHDLPRIVTIQNPYSLLNRSFEVGLAEVSQYEGVELLAYSCLGFGTLTGKYLNGAKPAGARNTLFSRFTRYSGEQTQKAVAAYVDIARRHGLDPAQMALAFVRRQPFVASTLLGATTMDQLKTNIESLHLELSEDVLAEIEAVHQVYTYPAP [P0A9T4]”, for which the “total protein half-life in vivo” value is, setting by setting: under setting [1], 5.76 ± 0.33 h; under setting [2], 5.29 ± 0.14 h; under setting [5], 5.5 ± 0.14 h; under setting [3], 4.99 ± 0.068 h; under setting [4], 4.6 ± 0.38 h; under setting [6], 3.41 ± 0.077 h. For the same sequence, the “total protein half-life in vivo” value runs as follows: under setting [7], 5.9 ± 0.19 h; under setting [8], 10.4 ± 0.85 h; under setting [9], 4.88 ± 0.55 h; under setting [10], 8.51 ± 0.57 h; under setting [11], 6.32 ± 0.44 h; under setting [12], 12.8 ± 0.13 h.

As for “MDDIVNSVPSWMFTAIIAVCILFIIGIIFARLYRRASAEQAFVRTGLGGQKVVMSGGAIVMPIFHEIIPINMNTLKLEVSRSTIDSLITKDRMRVDVVVAFFVRVKPSVEGIATAAQTLGQRTLSPEDLRMLVEDKFVDALRATAAQMTMHELQDTRENFVQGVQNTVAEDLSKNGLELESVSLTNFNQTSKEHFNPNNAFDAEGLTKLTQETERRRRERNEVEQDVEVAVREKNRDALSRKLEIEQQEAFMTLEQEQQVKTRTAEQNARIAAFEAERRREAEQTRILAERQIQETEIDREQAVRSRKVEAEREVRIKEIEQQQVTEIANQTKSIAIAAKSEQQSQAEARANLALAEAVSAQQNVETTRQTAEADRAKQVALIAAAQDAETKAVELTVRAKAEKEAAEMQAAAIVELAEATRKKGLAEAEAQRALNDAINVLSDEQTSLKFKLALLQALPAVIEKSVEPMKSIDGIKIIQVDGLNRGGAAGDANTGNVGGGNLAEQALSAALSYRTQAPLIDSLLNEIGVSGGSLAALTSPLTSTTPVEEKAE”, the “total protein half-life in vivo” value by setting is: under setting [2], 4.22 h; under setting [4], 3.89 h; under setting [8], 9.53 h; under setting [9], 3.81 h; under setting [11], 6.67 h; under setting [12], 12.3 h.

As to “MKTIFRYILFLALYSCCNTVSAYTSFIVGNNAGVDNYRGPSTAAQMTFNYTSTASNLVFYKPTQLGPTGVKMYWSYLDTGTGGGILYCNTSGRANPGPITIENAMVYSGKDYGGHKLFNTSVPGLYYTMLISRVWSAYDTITDIQSPGIYIGDPSNQEFFFSVTDSDLQTKGCNKADDYDKFWAIGGIVHNITVEFYTDTNFDPTLNQQVQLSSSSNYLYSFKAYSPGTKVVDHSNHIYVNFTLNNVKLTLPTCFTSILTGPSVNGSTVRMGEYSSGTIKNGASPVPFDISLQNCIRVRNIETKLVTGKVGTQNTQLLGNTLTGSTAAKGVGVLIEGLATSKNPLMTLKPNDTNSVYIDYETEDDTSDGVYPNQGNGTSQPLHFQATLKQDGNIAIEPGEFKATSTFQVTYP”, the “total protein half-life in vivo” value under setting [4] worked out at 4.93 ± 0.34 h and the “total protein half-life in vivo” value under setting [8] amounted to 4.96 h.

With “MSEIVVSKFGGTSVADFDAMNRSADIVLSDANVRLVVLSASAGITNLLVALAEGLEPGERFEKLDAIRNIQFAILERLRYPNVIREEIERLLENITVLAEAAALATSPALTDELVSHGELMSTLLFVEILRERDVQAQWFDVRKVMRTNDRFGRAEPDIAALAELAALQLLPRLNEGLVITQGFIGSENKGRTTTLGRGGSDYTAALLAEALHASRVDIWTDVPGIYTTDPRVVSAAKRIDEIAFAEAAEMATFGAKVLHPATLLPAVRSDIPVFVGSSKDPRAGGTLVCNKTENPPLFRALALRRNQTLLTLHSLNMLHSRGFLAEVFGILARHNISVDLITTSEVSVALTLDTTGSTSTGDTLLTQSLLMELSALCRVEVEEGLALVALIGNDLSKACGVGKEVFGVLEPFNIRMICYGASSHNLCFLVPGEDAEQVVQKLHSNLFE”, the “total protein half-life in vivo” value runs as follows: under setting [1], 4.06 ± 0.69 h; under setting [2], 2.98 ± 0.29 h; under setting [5], 2.67 ± 0.073 h; under setting [3], 3.15 ± 0.3 h; under setting [4], 2.54 ± 0.31 h; under setting [6], 3.142 ± 0.0098 h. Besides, the “total protein half-life in vivo” value runs as follows: under setting [7], 4.67 ± 0.34 h; under setting [8], 8.44 ± 2.4 h; under setting [9], 2.9 ± 0.23 h; under setting [10], 4.25 ± 0.55 h; under setting [11], 5.46 ± 0.4 h; under setting [12], 10.1 ± 1.1 h.
